Assay: soluble on expression in E. coli; label from the status in PepcDB or PDB records

Sequence | soluble on expression in E. coli
EQLAGIDNLRDLDPTGALATKLEAIAPTVSTYDSYAGRLISEYGLLLPVEPSSRLISQTELFQIAHSIVSAHTGALNTSNSPNTVTSTLISLVSEMDNHMVSPTDIEEESAAFLAMIEDVEATSKRAPSKEVYKWRDTQVLRNELLPLVQQLKTHLADNHLMTFGEQMSLAARLAAENPQVGASQRNRYQIIMLDEYQDTGHAQRVLLKSLFAGTAVTAVGDPMQSIYGWRGATAANLERFLTDFGSNGSPATKKELTVSFRNPPEVLDLANRVSRELLGVPEDPRRPVQPLEPGPAALNGIVRLGFFPSMDEERSYVADHLAQAYEQHDGDHPFTAAVLVRKRKHSAAIALELQQRGVPVE | not soluble
MNPKHSCTNFGADIPVNSQLIVTTSELRQKLKEKNKFILVDNRTWDEHIGKVSGYTYYDKKGRIPGALYGHSGSDSVSLEEYRNIDNTMRNKYEILEMWDKENIDVNKQLIFMCGSGWRAAEVLTYANVIGVENTSLYSDGWMGWSLDNSNLIEVGEHKLEHHHHHH | not soluble
LYRHFAHRPDDLYRLEWREYETLLARIFQSQGFDVELGPGRGDEGVDIRLIQRDPIGDIVTLVQAKKYGAGNKIDQTQVAALYGIQQSEDANFSMFVTTSAYAPVAKRFSAREKV | not soluble
MTRYLRLSGLEPFVLTPDIPFVNVGERTNVTGSARFRKLITNRDYAAALEVARDQVQNGAQILDVNMDEGLIDSKAAMVEFLNLIASEPDIARVPLMIDSSKWEVIEAGLKCVQGKPVVNSISLKEGEESFRRQAGLCLAYGAAVVVMAFDEEGQADSFARKTTICARAYRILVEEVGFPPEDIIFDPNVFAVATGIEEHDNYGVDFIEAARWIRANLPHAHVSGGVSNLSFSFRGNEPVREAMHAVFLYHAIRAGMDMGIVNAGQLAVYDQIDPDLREACEDVVLNRKPKQGGTATERLLALAER | not soluble
MARLNITFSPQAFEDYKYFQQNDKKMVKKINELLKSIDRNGALEGIGKPEKLKSNLTGYYSRRINHEHRLVYTVDDNHIKIASCKYHY | not soluble
MSLQRFNQRVWMMFGEFNLIDKYFSNRQAQRKDVHLALGDDCAIVKVPENSRVAISTDTLVAGTHFLAQANPAWVAHKALASNISDLAAMGATPAWVSLALTLPEIDDAWLTPFCDAFFELAKYYNVQLIGGDTTKGPLSITLTVQGFLPKEQAMLRSGAKVGDWLYVTGDLGDSQAGLDVILDPEKRHLPFADILEQRHYLSTPRIVAGQALVHLASSAIDISDGLIADLQHILRRSNVGASIDVSLLPLSKELLQFVDSVTSAQQYALTSGEEYELCFTIPEENRGSLENALAHCGTKVTCIGQIRPAGTFELHNQGKKLDWQLAGYDHFKVKAEGHHHHHH | soluble
MNDEIISNLHMLSAVHRSLPRDARKDYLSRVRGKVEHLYKAIQGNKKPEINFEVSLEEAKLADKYLKDAKKVRIGNTMSDRDEYLGLLEIADNDERKCVFIHVSIGGIEEGCIVIQLFNDIVPRTAQNFESWCTGEKRGKYGEPLHLKECEIKMILPGSVIGFGDFEENCEYFDDEKSKENHCKNVLSMNIDKSENSSAPLFNMELSDGVDRAGKAIVFGKVVMGNRVIEKVLLAGSRDGIPEQTVKISDCGEMFRGGHSHF | not soluble
MFFDDTYLDYKARVSYSLFCAKDFNETAAFIKANRILMTSTELAAYMLKPENYKYAIIARIKNSMVGIVLFTDFESEVFINHLYVSPIHRFKGIGSNLLKELKAFMGQRTVSYIDTSNNYMPWMEVLDVSKKAAVINQLGSFYKCSK | not soluble
MAKKIEKNIITGLDIGTSKIIALIGEVTSDGTIEIIGIGRHPSRGLKRGVVVDIETTVNSIQRAVQEAELMAGCEVRTVYAGIAGSHIRSLNSHGIVAIRDQEVSQADVERVIDAAKAVAIPADQ | not soluble
MGSDKIHHHHHHMNKIAVIGKVFVDIKGTSFAPLHKDAKNVGDITFSNGGTGRNVAQNLAVLGNDVRFISTVTNDQIGVGVLEELKSYGANVDHVEMLEDHGMGMWLAVMDNEGDLQTSISKQPDAKLLEEAILRQSVYALDGVDAVAIDLDLSVTVLERLIHICRKMELPLYGVCGHLSVIERNRHLLQGFTGFICSREEAEILSDLSIVTVEDAIHVANELAKKGAPFTVVTMSELGAVYVDRRTATSGHVGTKKVKVVDSTGAGDSFFSAVLSELTESKRAEEALQLGMKVAAQVIASTENGLIPEMLETLR | not soluble
MIPKSTGYLADLNIHWKNYIQYLHKIEVAPKTKLQLLHDVANRIFIVESGSVRMGFEKDGKDITLQFFFEDELVASVESLFNQTPSKYFIETIEHSTIYYLTKEMLEVMALKLPEMANITQDILMSRLIYYSNHLHSYISETPEQRFNKLIETRPYIFMRVSQRHIASYLGITNVSLSRIKARKSVVYDQQPATVSVAEADNEEYLKS | not soluble
MNEQPNNENITQSASRDLQIIEDDAFSYEGYQVVRGEFFAHTYEPSFTFNANKVSVNTACIKKLPQTDFVQILVNPDEKKLAVRPCQEDEKDSFRWCSATKKRSPRQITCRIFFAKVISLMEWNPSYRYKLLGKLIRSDNELLFVFDLTTPEIYVRAEKEDGKIKTSRTPTYPAEWQNQFGVPVEEHQSNLQINMFDGYAVFGISENTQPSEEAQNTSVPPKEETHYEQSTLFPADPMHLEHHHHHH | soluble
MGSDKIHHHHHHLSCCGQIGKITVGNGIWGILEEGMQSKAGTADQGWALEEKLDEFNRHQHPFNGSGADESFAYVIKKGDQVVGGVAASSDDNAIGYIELLWVDETMRRQGLGRALLATVEQALQAAGCKRVRLETFDYQAPAFYLENGYHEFGKLNYDYAGVIEYFFVKMLSLPIGYNIPPAFSIEAAEDLAMEAIENKLHAYNVKMKPLLQQKMGVTFTFLAEENGQCIGGIFGYSTMYKIGYIESLWVAETNRHAGVGTALVDVLVNALKDFGCPIVHLDTMSYQGAAFYKALGFEQFGQLTYPEIDAAEVFFVKHLVSVGERTINANK | not soluble
MKFYRRIEPIKAMTFDLDDTLYDNHPVIIRMESELLTWLQQTHPAVAHMEKADWLQVKKHVLQQSPDLKSDVTLWRLVQLKHAFLSVGYDEAQAQVAAEEGVQLALEWRSQFDVPQQSL | not soluble
GKITFFEDRSFQGRCYECSSDCPNLQTYFSRCNSVRVDSGCWMLYERPNYQGHQYFLRRGEYPDYQQWMGFSDSIRSCRLIPHAGSHRMRLYEKEDHKGVMMELSEDCSCIQDRFHLSEVRSLQVLEGCWVLYEMPNYRGRQYLLRPQEYRRFQDWGSVDAKAGSLRRVVDLY | soluble
MSLDRQLWRQFPQVEPQLTALQDYLLRTVQLDNQPIHHKILALLKSGGKLLRPGYFYLFSTFGNAATPAQLQAGAAAIEILHVGTLIHDDVIDDSPTRRGVRTIQMTYGQRNAIYAGDFMFTVYFDQVLKSTTDRSLIQNHIDAMHRILQGELHQMDLNYREDITLDAYLNEIAGKTAELFALSCYQGAQLAGAPQSVIDRTRDIGIAIGCAYQMLDDILDYAGDPKRTQKPVLEDLRSGVYSLPLLLSLSHAPRDFHKLLKKKQAMTLEDIKHVQALVAQYDGVGAAKQLAQDYTDRALTLIQQLPVGSAQQSLEQLTRLLLRRDHEGHHHHHH | soluble
CSEVNVVKERPKTDEHKSYSCSFKGCTDVELVAVICPYCEKNFCLRHRHQSDHDCEKLEVAKPRMAATQKLVR | soluble
MRRGPARAAALHRAFSLHGKIAAMQRPASSSLPPLDPAASAHSASVARHLRAAIAAAGGWLPFSQWMSAALYAPGLGYYTAGATKLASPADAQGPALPAGDFVTAPELTPLFAATVARQIAQVLRATDTASVLEFGAGTGALAEGVLRALAGLDCPARYLIVEVSADLRQRQQSRLAPFGDRVQWLDQLPDAFAGCVLGNEVLDAMPATLFRWSETGVVQERGVTVDANGEFAWQDRDADAPLAQAVAQRMPPLPGYVSEINLQAEAWVRSMGLWLQRGAALLLDYGFPRSEYYHPQRAGGTLMCHLRHHAHADPFAAPGLQDITSHVDFTAMADAALAGGLQVLGYLSQARFLVNAGLLDALSQLDPADARAYAQAVAPVQKLLSEAEMGELFKVLAVGRDMPEPLLGFARGDRRGTL | not soluble
MGSDKIHHHHHHMPQIGYQWLSSKCGVVPVHPFAVQSEIGRARSTSTDGDIRREIYPEPYRPTASLTDNLTFAFRHEGIHLEFLARLYALPSVRKELEAWIAREPTGAYARRACFFYEWLMPAPLDAPGVSKGNYVDALNPEEFVVGASINNTRWRVRDNLPGNRDFCPVIRRVEAVQRAETYDLAAPLAELEADYGIDLILRSAVWLTVKESRASFLIEHEQDNEDRIRRFAAVMESECGQHANPFDAGTLNVLQRGILGQSALRYGIRRSPVYVGHVARYQPVVDYIAPPWQHIEVMLAGLTRFLERTAGRAPLVRAAAASFGFVYAHPMADGNGRISRFLINDILRRDGAVPAPIILPVSATITHSTRDRAAYDKVLERFSRPLMKHYADQYTFGKTEIAEDGVEYNLHFHAYEDALPAWRYPDLTAHVGYLADVIDATLAHEMRTEARFLQANDKARRAIKDFLEAPDNDLDGIIRSVRQNGNSISNNLRKRYPLLDERPELGAQIVEAVAEAFADDKSH | not soluble
GPGSMAEAQARKRTESLSKMYSKTPISEGYALWDREYLLAAMRVFTFKAEGAPPFVLAPYLDSVAEITLQMHDLEDAAEQFAIAAGKYQLIDQKVLADLMRFKVTEVSSSAEIALEQVQAYLAAQDPQANGSGENSTVQTKSAFARVYAYLADLLLRSVDEEQASEAVLAQALTAAELAVQLGWDRDHCGWLLVGDVHAASGNYEKAKEAYGKALQRCPHYAKALERQIGVVQQLVRAADECGDDAGKATLNTELLTLLSRSIEVHPLANTFREKAFLLSEMHGDDAALAFVAETLEHPPQEEIEVIGSSAKEMTSTLLKAKAAILADGNQLDAALEAATKALEVDPNDEEAKSIIRDLHESMAA | soluble
MRRAFITGVFFLSEVEFSHEYWMRHALTLAKRAWDEREVPVGAVLVHNNRVIGEGWNRPIGRHDPTAHAEIMALRQGGLVMQNYRLIDATLYVTLEPCVMCAGAMIHSRIGRVVFGARDAKTGAAGSLMDVLHHPGMNHRVEITEGILADECAALLSDFFRMRRQEIKAQKKAQSSTD | soluble
MEFMKLAIEEAKKGMEKGDGGPFGAVIVKDGKVIGSGHNMVLVTKDPTAHAEVTAIRNTCKNVDNFDLSGCQLYTSCYPCPMCMGAALWSRVDAIYYGATSQDAANIGFGDHEFHEFLQNPKSDDKRKLEQFKVDNYLEPFQLWSKKDNKELY | not soluble
MAIIGIDLGTTNSLVATWSEDGATLIPNVLGEFLTPSVVSVDETGEILVGRIAKERLITHPQLTAATFKRFIGTEKKYELGTYTFSSEELSSFVIKSLKQDAEAYLNEEVTGAVISVPAYFNDTQRKSTKRAAEIAGLTVERLISEPTAAAIAYGLYQEESETKFLVFDLGGGTFDVSILELFEGIMDVKSIAGDNYLGGEDFTRSLMTFFLESHQLDPDSLDSKTLSLIYTQAERCKLTLCNESAATMNVVIQNQTYETSINRGEFEKIVTPLLLRLRYPIERALRDASLNPNDLDAVILIGGATRMPLVKSVISKMFGRMPYANINPDETVALGAAIQVALKERNKALEEVILTDVCPYSLGTSVVQEFGDGKSESGYFFPIIERNTPIPVSKVERLYTVKDKQQFITIDVYQGENRRVVNNLKLGELKIKIPPAPAGNESVDIRYTYDINGILEVEVISTSTGEKKRTIIQQNAGNLTDAEIEKRLLELRDIKIHPRDREENRLLLAKCERLYEELLGDERKKISILLQQFESVLTTQNDKKIKEASSILKEHIESMERWANR | not soluble

From the DeepSol protein solubility set
